We go through 2 molecules from patent US20150104459A1 (published 2015).

This assay addresses recombinant soluble homotrimeric HA, A/common magpie/Hong Kong/5052/07 (H5N1) (influenza A virus A/common magpie/Hong …). The experiment in a line: microarray, trimeric HA, transfection supernatant.

B1: TCN-556 (5089_K12) (antibody, V domains shown)
VH: QVQLVQSGAEVKKPGASVKVSCKASGYTFIGYDMHWVRQAPGQGLEWMGWINAKRGGTNYAQKFQGRVTMTRDTSISTAYMELNSLRSDDTAVYYCARGVGSRTTIFGVLNPEFDYWGQGTLVTVSS
VL: QSALTQPPSASGSPGQSVTISCTGSSSDVGGYDYVSWYQQHPGKAPKLLIYEVTKRPSGVPDRFSGSKSGNTASLTVSGLQAEDEADYYCSSYAGNYNHVFGPGTKVTVL
For the molecule B1, the “Trimeric HA Binding RLU” value is 20100 RLU.

B2: TCN-560 (5084_P10) (antibody, V domains shown)
VH: EVQLVESGGGLVQPGGSLRLSCAASGFIFRNYWMSWVRQAPGKGLEWVANIKQDGREKYYVDSLRGRVNISRDNAENSLYLHMNSLRVEDTAVYFCARARMVVVTGDGFDVWGHGTMVTVSS
VL: DIQMTQSPSSLSASVGDRVTITCRASQNIKRYFNWYQQKPGKAPKLLIYAASNLENGVPSRFSGSGSGTDFTLTISSLQPEDFATYYCQQSFSKSWTFGQGTNVDIK
As for B2, the “Trimeric HA Binding RLU” value was 30500 RLU.
